According to the supplement of paper PMC6757056:
± gives the standard deviation of the averaged measurements.

B1: library; a variant is named by its letters at N, in order (parent)
chain: GCUGUCACCGGUGUAUUACCCUAGUGGUCGACCGGUCUGAUGAGUCUNNNNNNAGACGAAACAGC

How the values were obtained:
[1] = variants of: B1; assay: normalized RNA/DNA level with ligand (relative to sTRSVctl = 100) (log10 (% of sTRSVctl)); ligand: hypoxanthine (xanthine aptamer); higher = less ribozyme self-cleavage, higher mRNA level; conditions: ligand concentration (+) RNA-Seq: 5 mM, HEK293T, reporter: mCherry (pCS4076), ligand present: yes
How it was run: (§1)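 Ribozyme switch library plasmids with mCherry reporters (eGFP in certain ligand experiments) went into HEK293T cells at 4 µg per 6-well well. Where ligand was used, it was applied 1 h before transfection, and total RNA was extracted with EDTA 72 h later for reverse transcription, amplification, barcoding and sequencing. RNA level is the RNA-to-DNA read ratio normalized to a spiked-in non-cleaving sequence or to the leading sequences, then scaled and log-transformed. Scaling was ×100 with log10, the leading set comprised 25 sequences, and the cutoff was ≥100 DNA reads.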

[2] = variants of: B1; assay: normalized RNA/DNA level without ligand (relative to sTRSVctl = 100) (log10 (% of sTRSVctl)); ligand: hypoxanthine (xanthine aptamer); higher = less ribozyme self-cleavage, higher mRNA level; conditions: HEK293T, reporter: mCherry (pCS4076), ligand present: no
How it was run: as §1

## AUGUCC
[1]
  normalized RNA/DNA level with ligand (log10): 1.98 ± 0.11
[2]
  normalized RNA/DNA level without ligand (log10): 1.884 ± 0.011

## AUGUCG
[1]
  normalized RNA/DNA level with ligand (log10): 1.863 ± 0.018
[2]
  normalized RNA/DNA level without ligand (log10): 1.52 ± 0.036

## AUGUCA
[1]
  normalized RNA/DNA level with ligand (log10): 1.95 ± 0.08
[2]
  normalized RNA/DNA level without ligand (log10): 1.741 ± 0.0086

## UUGAGU
[1]
  normalized RNA/DNA level with ligand (log10): 1.92 ± 0.026
[2]
  normalized RNA/DNA level without ligand (log10): 1.75 ± 0.026

## AUGUUA
[1]
  normalized RNA/DNA level with ligand (log10): 1.92 ± 0.026
[2]
  normalized RNA/DNA level without ligand (log10): 1.761 ± 0.011

## AUGUUC
[1]
  normalized RNA/DNA level with ligand (log10): 1.94 ± 0.14
[2]
  normalized RNA/DNA level without ligand (log10): 1.85 ± 0.034

## CUGAGU
[1]
  normalized RNA/DNA level with ligand (log10): 1.94 ± 0.073
[2]
  normalized RNA/DNA level without ligand (log10): 1.839 ± 0.0049

## CUGAGC
[1]
  normalized RNA/DNA level with ligand (log10): 1.947 ± 0.0077
[2]
  normalized RNA/DNA level without ligand (log10): 1.79 ± 0.065

## GUGGAC
[1]
  normalized RNA/DNA level with ligand (log10): 1.889 ± 0.011
[2]
  normalized RNA/DNA level without ligand (log10): 1.58 ± 0.068

## GUGGAG
[1]
  normalized RNA/DNA level with ligand (log10): 1.79 ± 0.028
[2]
  normalized RNA/DNA level without ligand (log10): 1.28 ± 0.1

## AUUAUC
[1]
  normalized RNA/DNA level with ligand (log10): 2.02 ± 0.021
[2]
  normalized RNA/DNA level without ligand (log10): 1.97 ± 0.02

## AUCUCA
[1]
  normalized RNA/DNA level with ligand (log10): 1.96 ± 0.071
[2]
  normalized RNA/DNA level without ligand (log10): 1.89 ± 0.043

## AUCUCG
[1]
  normalized RNA/DNA level with ligand (log10): 1.89 ± 0.024
[2]
  normalized RNA/DNA level without ligand (log10): 1.59 ± 0.06

## AUCUCU
[1]
  normalized RNA/DNA level with ligand (log10): 1.99 ± 0.075
[2]
  normalized RNA/DNA level without ligand (log10): 1.937 ± 0.0021

## AUCUCC
[1]
  normalized RNA/DNA level with ligand (log10): 1.97 ± 0.039
[2]
  normalized RNA/DNA level without ligand (log10): 1.9 ± 0.058

## CUGCGG
[1]
  normalized RNA/DNA level with ligand (log10): 1.96 ± 0.1
[2]
  normalized RNA/DNA level without ligand (log10): 1.902 ± 0.0065

## CUGCGU
[1]
  normalized RNA/DNA level with ligand (log10): 1.954 ± 0.013
[2]
  normalized RNA/DNA level without ligand (log10): 1.93 ± 0.021

## GUGAGU
[1]
  normalized RNA/DNA level with ligand (log10): 1.94 ± 0.028
[2]
  normalized RNA/DNA level without ligand (log10): 1.639 ± 0.0057

## UUGGAG
[1]
  normalized RNA/DNA level with ligand (log10): 1.95 ± 0.041
[2]
  normalized RNA/DNA level without ligand (log10): 1.684 ± 0.0079

## UUGGAA
[1]
  normalized RNA/DNA level with ligand (log10): 1.942 ± 0.0068
[2]
  normalized RNA/DNA level without ligand (log10): 1.771 ± 0.0035

## UUGGAC
[1]
  normalized RNA/DNA level with ligand (log10): 1.95 ± 0.02
[2]
  normalized RNA/DNA level without ligand (log10): 1.92 ± 0.043

## UUGGAU
[1]
  normalized RNA/DNA level with ligand (log10): 2.004 ± 0.0096
[2]
  normalized RNA/DNA level without ligand (log10): 1.8482 ± 4.2e-06

## AUGCGC
[1]
  normalized RNA/DNA level with ligand (log10): 1.93 ± 0.051
[2]
  normalized RNA/DNA level without ligand (log10): 1.73 ± 0.031

## AUGCGU
[1]
  normalized RNA/DNA level with ligand (log10): 1.94 ± 0.025
[2]
  normalized RNA/DNA level without ligand (log10): 1.819 ± 0.016

## GUGCGA
[1]
  normalized RNA/DNA level with ligand (log10): 1.918 ± 0.0038
[2]
  normalized RNA/DNA level without ligand (log10): 1.58 ± 0.018

## GUGCGC
[1]
  normalized RNA/DNA level with ligand (log10): 1.9 ± 0.023
[2]
  normalized RNA/DNA level without ligand (log10): 1.74 ± 0.098

## CUGUUC
[1]
  normalized RNA/DNA level with ligand (log10): 1.97 ± 0.021
[2]
  normalized RNA/DNA level without ligand (log10): 1.861 ± 0.0058

## CUGUUG
[1]
  normalized RNA/DNA level with ligand (log10): 1.964 ± 0.0068
[2]
  normalized RNA/DNA level without ligand (log10): 1.8708 ± 0.00036

## CUGUUU
[1]
  normalized RNA/DNA level with ligand (log10): 2.02 ± 0.046
[2]
  normalized RNA/DNA level without ligand (log10): 1.956 ± 0.006

## CUCUCU
[1]
  normalized RNA/DNA level with ligand (log10): 1.89 ± 0.034
[2]
  normalized RNA/DNA level without ligand (log10): 1.904 ± 0.012

## CUCUCA
[1]
  normalized RNA/DNA level with ligand (log10): 1.96 ± 0.0068
[2]
  normalized RNA/DNA level without ligand (log10): 1.91 ± 0.027

## AUGAUU
[1]
  normalized RNA/DNA level with ligand (log10): 1.92 ± 0.036
[2]
  normalized RNA/DNA level without ligand (log10): 1.709 ± 0.003

## AUGAUC
[1]
  normalized RNA/DNA level with ligand (log10): 1.98 ± 0.039
[2]
  normalized RNA/DNA level without ligand (log10): 1.93 ± 0.022

## GUUAGU
[1]
  normalized RNA/DNA level with ligand (log10): 1.9 ± 0.1
[2]
  normalized RNA/DNA level without ligand (log10): 1.786 ± 0.011

## GUUAGC
[1]
  normalized RNA/DNA level with ligand (log10): 1.91 ± 0.023
[2]
  normalized RNA/DNA level without ligand (log10): 1.683 ± 0.0085

## CUGCUG
[1]
  normalized RNA/DNA level with ligand (log10): 1.92 ± 0.094
[2]
  normalized RNA/DNA level without ligand (log10): 1.815 ± 0.0021

## CUGCUC
[1]
  normalized RNA/DNA level with ligand (log10): 1.96 ± 0.063
[2]
  normalized RNA/DNA level without ligand (log10): 2.01 ± 0.0072

## CUGCUA
[1]
  normalized RNA/DNA level with ligand (log10): 1.95 ± 0.052
[2]
  normalized RNA/DNA level without ligand (log10): 1.77 ± 0.043

## CUGCUU
[1]
  normalized RNA/DNA level with ligand (log10): 1.962 ± 0.011
[2]
  normalized RNA/DNA level without ligand (log10): 1.9272 ± 0.0008

## GUGAAC
[1]
  normalized RNA/DNA level with ligand (log10): 1.9 ± 0.024
[2]
  normalized RNA/DNA level without ligand (log10): 1.57 ± 0.046

## GUGAAU
[1]
  normalized RNA/DNA level with ligand (log10): 1.9 ± 0.024
[2]
  normalized RNA/DNA level without ligand (log10): 1.7 ± 0.052

## GUGAAA
[1]
  normalized RNA/DNA level with ligand (log10): 1.895 ± 0.016
[2]
  normalized RNA/DNA level without ligand (log10): 1.66 ± 0.027

## GUGAUU
[1]
  normalized RNA/DNA level with ligand (log10): 1.92 ± 0.0091
[2]
  normalized RNA/DNA level without ligand (log10): 1.847 ± 0.0028

## GUGAUA
[1]
  normalized RNA/DNA level with ligand (log10): 1.89 ± 0.073
[2]
  normalized RNA/DNA level without ligand (log10): 1.75 ± 0.027

## GUGAUC
[1]
  normalized RNA/DNA level with ligand (log10): 1.93 ± 0.036
[2]
  normalized RNA/DNA level without ligand (log10): 1.54 ± 0.13

## UUGGCC
[1]
  normalized RNA/DNA level with ligand (log10): 1.97 ± 0.066
[2]
  normalized RNA/DNA level without ligand (log10): 2.013 ± 0.0026

## UUGGCU
[1]
  normalized RNA/DNA level with ligand (log10): 1.98 ± 0.042
[2]
  normalized RNA/DNA level without ligand (log10): 1.988 ± 0.013

## UUGGCA
[1]
  normalized RNA/DNA level with ligand (log10): 1.966 ± 0.0098
[2]
  normalized RNA/DNA level without ligand (log10): 1.907 ± 0.018

## UUGCAU
[1]
  normalized RNA/DNA level with ligand (log10): 1.98 ± 0.024
[2]
  normalized RNA/DNA level without ligand (log10): 1.862 ± 0.004

## UUGCAC
[1]
  normalized RNA/DNA level with ligand (log10): 1.96 ± 0.051
[2]
  normalized RNA/DNA level without ligand (log10): 1.9 ± 0.038

## UUGCAA
[1]
  normalized RNA/DNA level with ligand (log10): 1.92 ± 0.03
[2]
  normalized RNA/DNA level without ligand (log10): 1.79 ± 0.048

## UUGCAG
[1]
  normalized RNA/DNA level with ligand (log10): 1.915 ± 0.017
[2]
  normalized RNA/DNA level without ligand (log10): 1.79 ± 0.099

## CUGUGA
[1]
  normalized RNA/DNA level with ligand (log10): 1.976 ± 0.0082
[2]
  normalized RNA/DNA level without ligand (log10): 1.82 ± 0.065

## CUGUGU
[1]
  normalized RNA/DNA level with ligand (log10): 1.95 ± 0.047
[2]
  normalized RNA/DNA level without ligand (log10): 1.898 ± 0.0077

## CUGUGC
[1]
  normalized RNA/DNA level with ligand (log10): 1.907 ± 0.018
[2]
  normalized RNA/DNA level without ligand (log10): 1.86 ± 0.043

## CUUACU
[1]
  normalized RNA/DNA level with ligand (log10): 1.96 ± 0.028
[2]
  normalized RNA/DNA level without ligand (log10): 1.856 ± 0.0075

## CUUACA
[1]
  normalized RNA/DNA level with ligand (log10): 1.932 ± 0.011
[2]
  normalized RNA/DNA level without ligand (log10): 1.83 ± 0.062
